The text below walks through data of publication PMC10092650.

The target of assay [1] is doubly stabilized microtubules (GMPCPP and paclitaxel) (UniProt Q6B856). The assay can be described thus: co-sedimentation.
The target of assay [2] is GMPCPP-stabilized HyLite 647/biotin-labeled microtubules (bovine) (UniProt Q6B856). The assay is described as follows: single-molecule TIRF microscopy.
For assay [3], the target named is X-rhodamine-labeled dynamic microtubules nucleated from GMPCPP-stabilized Cy5 MT seeds (UniProt Q6B856). The assay is described as follows: dynamic MT seed assay.
Assay [4] deals with doubly stabilized microtubules (GMPCPP and paclitaxel) (UniProt Q6B856). The assay can be described thus: co-sedimentation. The source holds these as a separate data set.
The target of assay [5] is GMPCPP-stabilized HyLite 647/biotin-labeled microtubules (bovine) (UniProt Q6B856). The assay is described as follows: single-molecule TIRF microscopy. The source holds these as a separate data set.

Read-outs that look alike come from different tables or passages of the source.

Take “GFP-Kif18B (full-length human Kif18B N-terminally tagged with EGFP) (from UniProt Q86Y91-6 1-833) (natural protein)”: in assay [1], the percent pelleted with MTs is above 90%. In assay [2], the dwell time at MT plus ends was 5.39 s and the mean dwell time on the MT lattice came to 2.3 s. For the same substance, in assay [3], the percent of two-sided MTs with GFP-Kif18B binding events, with importin α/β was determined as 73% and the percent of two-sided MTs with bound GFP-Kif18B worked out at 46%. The percent pelleted with MTs in assay [4] stood at 79%. In assay [5], the dwell time at MT plus ends was found to be 5.56 s and the mean dwell time on the MT lattice was found to be 1.77 s.
In assay [1], “YPet-Kif18B(605-828)-His6 (from UniProt Q86Y91-6 605-828) (domain or fragment)” registered a fold increase in the Kd for MTs with importin α/β against without of 9 fold.
For “YPet-Kif18B(605-828)-NLS1/2 (from UniProt Q86Y91-6 605-828) (domain or fragment)”, the fold increase in the Kd for MT binding relative to YPet-Kif18B(605-828) in assay [1] was determined as 2 fold.
